Data: the supplement of paper PMC12667976
± gives the standard error.

B1: library; numbered along this chain (parent)
chain: MATDAALRRLLRLHRTEIAVAVDSAFPLLHALADHDVVPEDKFQETLHLKEKEGCPQAFHALLSWLLTQDSTAILDFWRVLFKDYNLERYGRLQPILDSFPKDVDLSQPRKGRKPPAVPKALVPPPRLPTKRKASEEARAAAPAALTPRGTASPGSQLKAKPPKKPESSAEQQRLPLGNGIQTMSASVQRAVAMSSGDVPGARGAVEGILIQQVFESGGSKKCIQVGGEFYTPSKFEDSGSGKNKARSSSGPKPLVRAKGAQGAAPGGGEARLGQQGSVPAPLALPSDPQLHQKNEDECAVCRDGGELICCDGCPRAFHLACLSPPLREIPSGTWRCSSCLQATVQEVQPRAEEPRPQEPPVETPLPPGLRSAGEEVRGPPGEPLAGMDTTLVYKHLPAPPSAAPLPGLDSSALHPLLCVGPEGQQNLAPGARCGVCGDGTDVLRCTHCAAAFHWRCHFPAGTSRPGTGLRCRSCSGDVTPAPVEGVLAPSPARLAPGPAKDDTASHEPALHRDDLESLLSEHTFDGILQWAIQSMARPAAPFPS

Variants of: B1
Test: AIRE transcriptional activation functional score (insulin promoter-GFP; nonsense median 0, synonymous median 1) (normalised score); higher = higher AIRE activity (more reporter activation)
Details: with insulin promoter-GFP reporter in HEK293
Protocol: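 Deep mutational scan of full-length human AIRE (codon-optimized cDNA, DT-POPCode NNN libraries over three regions) integrated at a Bxb1 landing pad in HEK293 cells carrying an insulin core promoter-GFP reporter at a Flp-In site. Cells were sorted for the top 10% GFP about 14 days after transfection. Variant frequency log-ratios (select vs non-select, TileSeq) were rescaled so that the nonsense median is 0 and the synonymous median is 1, then averaged over biological replicates.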

Row | Variant | AIRE transcriptional activation functional score
1 | P331L | 0.9 ± 0.1
2 | G91S | 1.19 ± 1
3 | G91L | 0.236 ± 0.57
4 | G91V | 0.766 ± 0.38
5 | T72L | 0.84 ± 0.8
6 | T72D | 2.22 ± 1.8
7 | L32G | -0.111 ± 0.79
8 | P483C | 1.44 ± 0.08
9 | A284N | 0.828 ± 0.039
10 | L122N | 0.335 ± 0.67
11 | P200S | 1.06 ± 0.18
12 | P539A | 0.371 ± 0.1
13 | S324C | 1.03 ± 0.16
14 | S324G | 1.01 ± 0.13
15 | H448Q | 1.05 ± 0.24
16 | A452T | 0.973 ± 0.13
17 | L397W | 0.989 ± 0.042
18 | L397P | 0.66 ± 0.19
19 | P266T | 1.05 ± 0.18
20 | G486I | 1.37 ± 0.12
21 | K120P | 1.21 ± 0.39
22 | Q69F | -0.0774 ± 0.21
23 | G313E | 0.654 ± 0.1
24 | P315H | 0.985 ± 0.093

Row | Variant | AIRE transcriptional activation functional score
25 | P315L | 0.924 ± 0.38
26 | P360M | 1.19 ± 0.092
27 | G201Y | 1.17 ± 0.025
28 | G201D | 0.481 ± 0.047
29 | Y85H | -0.286 ± 0.36
30 | Y85W | -1.85 ± 0.26
31 | A496N | 0.726 ± 0.039
32 | A496H | 1.29 ± 0.15
33 | L158N | 1.19 ± 0.29
34 | A493N | 1.04 ± 0.17
35 | R15C | -0.257 ± 0.17
36 | G277M | 1.01 ± 0.086
37 | G387P | 0.291 ± 0.23
38 | F453W | 1.24 ± 0.025
39 | C434A | 0.14 ± 0.15
40 | Y394M | 1.13 ± 0.056
41 | Y394V | 0.926 ± 0.18
42 | Y394K | 0.301 ± 0.18
43 | R494I | 0.785 ± 0.11
44 | L428I | 1.22 ± 0.31
45 | L428R | 0.941 ± 0.13
46 | L418C | 1.16 ± 0.12
47 | L418D | 0.816 ± 0.16
48 | V199R | 0.735 ± 0.3

Row | Variant | AIRE transcriptional activation functional score
49 | V199C | 0.807 ± 0.35
50 | Q225G | 0.56 ± 0.37
51 | Q225H | 0.951 ± 0.054
52 | P148W | 0.0844 ± 0.061
53 | P162C | 1.41 ± 0.097
54 | D34Y | -0.0055 ± 0.37
55 | D34G | 0.43 ± 0.24
56 | G438K | 1.12 ± 0.044
57 | G438E | 0.922 ± 0.077
58 | C322P | 1.25 ± 0.21
59 | C322S | 1.41 ± 0.17
60 | R113Q | 1.18 ± 0.28
61 | T16P | -0.109 ± 0.47
62 | R445C | 0.188 ± 0.15
63 | R445H | 0.423 ± 0.093
64 | E307D | 0.973 ± 0.21
65 | E307Y | 0.242 ± 0.28
66 | K501Y | 0.863 ± 0.22
67 | C311T | 0.998 ± 0.14
68 | S412N | 0.717 ± 0.1
69 | R149E | 1.02 ± 0.19
70 | Q189S | 1.21 ± 0.26
71 | G379Y | 1.47 ± 0.06
72 | G408F | 1.28 ± 0.18

Row | Variant | AIRE transcriptional activation functional score
73 | R371I | 0.173 ± 0.21
74 | P350Y | 0.767 ± 0.26
75 | V104D | -0.387 ± 0.14
76 | P286Y | 1.65 ± 1
77 | K243C | 0.711 ± 0.25
78 | Q94W | 1.53 ± 0.47
79 | S278G | 1.34 ± 0.16
80 | G462C | 0.984 ± 0.24
81 | G462E | 0.465 ± 0.043
82 | D526S | -0.0693 ± 0.36
83 | C340G | 1.44 ± 0.13
84 | S195E | 0.862 ± 0.12
85 | S99E | 0.0893 ± 0.067
86 | E137R | 0.377 ± 0.72
87 | E137L | 0.822 ± 0.58
88 | R174L | 0.495 ± 0.31
89 | A142P | 0.882 ± 0.59
90 | A142M | 0.975 ± 0.063
91 | R356L | 0.928 ± 0.14
92 | Q290H | 0.981 ± 0.28
93 | Q290M | 1.27 ± 0.14
94 | R316I | 1.26 ± 0.29
95 | Q182A | 1.52 ± 0.54
96 | Q182M | 0.383 ± 0.048

Row | Variant | AIRE transcriptional activation functional score
97 | L285F | 0.835 ± 0.33
98 | L285T | 0.845 ± 0.47
99 | T344Y | 0.912 ± 0.1
100 | T344S | 1.06 ± 0.15
101 | P166M | 1.41 ± 0.054
102 | G374V | 1.07 ± 0.13
103 | N427T | 1.07 ± 0.11
104 | E216D | 0.741 ± 0.24
105 | Q108A | 0.176 ± 0.28
106 | Q108I | -0.272 ± 0.29
107 | I181W | 1.14 ± 0.07
108 | D478C | 0.947 ± 0.032
109 | D478M | 0.485 ± 0.043
110 | R203I | 1.2 ± 0.34
111 | T391H | 1.17 ± 0.07
112 | T447G | 1.03 ± 0.11
113 | T447C | 0.201 ± 0.3
114 | L97E | -2.05 ± 0.62
115 | L97A | -0.272 ± 0.34
116 | V436H | 0.883 ± 0.41
117 | V436I | 1.35 ± 0.16
118 | G178Y | 1.89 ± 0.3
119 | P490D | 0.28 ± 0.1
120 | G54C | 0.165 ± 0.19

Row | Variant | AIRE transcriptional activation functional score
121 | E136D | 0.541 ± 0.62
122 | R89W | 0.927 ± 0.079
123 | G204V | 0.123 ± 0.41
124 | G208Q | 1.23 ± 0.12
125 | V123T | 0.905 ± 0.51
126 | T183R | 0.948 ± 0.29
127 | L366A | 0.656 ± 0.12
128 | G424K | 1.04 ± 0.3
129 | S24T | -0.0952 ± 0.28
130 | W65P | -0.233 ± 0.91
131 | W65L | 0.2 ± 0.59
132 | D4G | 0.166 ± 0.2
133 | G150F | 1.34 ± 0.12
134 | A429C | 0.771 ± 0.1
135 | A429I | 1.14 ± 0.12
136 | A429T | 1.12 ± 0.17
137 | G440F | 1.04 ± 0.35
138 | E517V | 0.207 ± 0.098
139 | G197S | 1.12 ± 0.23
140 | S168W | 1.46 ± 0.22
141 | L409Q | 0.636 ± 0.19
142 | L409C | 0.887 ± 0.15
143 | Q534P | 0.0913 ± 0.28
144 | S196A | 0.621 ± 0.19

Row | Variant | AIRE transcriptional activation functional score
145 | L308W | -0.607 ± 0.18
146 | L308C | 1.43 ± 0.15
147 | K83P | -0.158 ± 0.87
148 | L470G | 0.741 ± 0.084
149 | D297M | 0.682 ± 0.052
150 | S518F | 1.2 ± 0.074
151 | V22Y | -0.0365 ± 0.39
152 | V22E | -1.03 ± 0.95
153 | V22P | -0.118 ± 0.69
154 | A193V | 0.147 ± 0.18
155 | S521G | 0.548 ± 0.12
156 | R465F | 1.15 ± 0.032
157 | A31L | 0.635 ± 0.32
158 | E376Y | 0.702 ± 0.3
159 | C419R | 0.836 ± 0.18
160 | A505R | 0.832 ± 0.26
161 | P361L | 1.07 ± 0.17
162 | T480W | 1.13 ± 0.096
163 | D312F | 0.823 ± 0.11
164 | G435I | 0.437 ± 0.3
165 | G435C | 1.18 ± 0.071
166 | L406I | 1.19 ± 0.096
167 | N179G | 0.991 ± 0.43
